Measurements as given in publication PMC8646660 (2021).

Tests used:
[1] = molecular target: SARS-CoV-2 S receptor-binding domain (RBD), biotinylated (SARS-CoV-2, UniProt P0DTC2 330-531); assay: BLI
[2] = molecular target: biotinylated SARS-CoV RBD (SARS-CoV, UniProt P59594, biotin); assay: BLI

B1: scFD20 (single-chain variable fragment of FD20) (scFv, V domains shown)
VH: QVQLQQSGAEVKKPGSSVKVSCKASGGTFSSYAFSWVRQAPGQGLEWMGRIIPILGIANYAQKFQGRVTITADISTSTAYMALSSLRSEDTAVYYCAKVEVNIGMDDYYYYYGMDVWGQGTTVTVSS
VL: not shown
- koff [1]: 0.000664 s⁻¹
- koff [2]: 0.00054 s⁻¹
